# Experimental data taken from the RNAGym collection of RNA variant scans (doi:10.1073/pnas.2313332121).
# This sample holds only a part of the variants without activity.
# B1: TPR 5TU (parent)
# chain: GGAUCUUCUCGAUCUAACAAAAAAGACAAAUCUGCCACAAAGCUUGAGAGCAUCUUCGGAUGCAGAGGCGGCAGCCUUCGGUGGCGCGAUAGCGCCAACGUUCUCAACUAUGACACGCAAAACGCGUGCUCCGUUGAAUGGAGUUUAUCAUG
# Variants of: B1
# Assay: polymerase ribozyme fitness, log enrichment relative to wild type (log ratio); higher = more active; in vitro selection for triplet polymerase activity
# Method in brief: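 Each subunit of a heterodimeric triplet polymerase ribozyme was mutagenized into a library by PCR, transcribed, and subjected to one round of in vitro selection, run in triplicate. Libraries were annealed with a biotinylated primer, the partner subunit and triplets, incubated frozen at −7 °C, and extended constructs were gel-excised, captured on streptavidin beads and recovered by RT-PCR. Input and output libraries were sequenced on Illumina, keeping genotypes with ≥10 input reads and ≥1 read per output. Fitness is log base 2 of genotype enrichment divided by wild-type enrichment, from inverse-variance-weighted replicate averages.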
row,Variant,polymerase ribozyme fitness (log ratio)
1,A91U C108U A113U C118U C149G,≤ -4.2
2,U90C G94U G124A C125U,-4
3,U90G C93G C99U,≤ -4.2
4,G92C U104G,-1.85
5,G92C U104C,-1.35
6,G92C C105G,-2.39
7,G92C C105U,-0.217
8,G92C C116G,-1.52
9,G92A U144C A147U,-3.46
10,A91G U144G,-2.02
11,A91G C131A A137C G143C,≤ -4.2
12,G92U A137G U145C,-1.11
13,C93U A97U C116A G133A,≤ -4.2
14,C93U C95U C131U,-0.998
15,A89U C95G A122G,-1.39
16,A91G G92A C125G C129G A137G,≤ -4.2
17,U90C G92A C123A G126A A147C,≤ -4.2
18,G92A A107G,≤ -4.2
19,G92U C116U,0.0946
20,C93U C118U,-1.84
21,C93G G141C,-3.36
22,C93G A142C,-4.02
23,C93G A142U,-3.03
24,C93A A107U A110G C114U U127G,≤ -4.2

row,Variant,polymerase ribozyme fitness (log ratio)
1,G92U C95A A115G A147C,≤ -4.2
2,C93U C95G,-2.26
3,A91C A150G,≤ -4.2
4,A89U A91U,≤ -4.2
5,G92U A106C,-0.0112
6,G92U A106G,-0.318
7,A89G G124U,-1.93
8,U90C C99U,≤ -4.2
9,G92A U127A,-3.83
10,G92A U127G,-3.27
11,U90C U127C,≤ -4.2
12,G92C A115U,-1.86
13,A91G G140U,-4.19
14,U90G G100A C116U,≤ -4.2
15,C93A C125U,-2.47
16,C93U C116U C123A,-1.16
17,C93G U101C,-3.2
18,A91C A113G A138U,≤ -4.2
19,G92A C105A A147U,-4.16
20,C93A G126A A137G,-2.09
21,U90A C99U C103G G140A,≤ -4.2
22,A91G G94A,-3.47
23,G92U A115C A119U G140C,≤ -4.2
24,A91G G143C,-3.43

row,Variant,polymerase ribozyme fitness (log ratio)
1,C93A A113U,-4.07
2,G92U G136C,-3.44
3,G92A C95A C125G,-3.82
4,C93U A106C C129G G143A,-3.64
5,U90G G126U A147U,-3.95
6,G92A C116G C123G,-2.92
7,C93G G140C,≤ -4.2
8,A91C C108G A120U,≤ -4.2
9,C93U C103U A107C C125A,≤ -4.2
10,C93A A107U G126C A150G,≤ -4.2
11,A91U C103U U145A,≤ -4.2
12,G92U C125U,-1.4
13,C93A U101G,-3.29
14,C93U A115U A120G,-2.4
15,G92C U135G A142U,-4.1
16,C93A A142G,-2.77
17,C93A A142U,-3.16
18,C93A A142C,-1.78
19,A91G A106G,-1.93
20,G92A C149U,-3.4
21,A91G G100U A113U A120G C125A U139G,≤ -4.2
22,C93U A98G,-1.59
23,C93A A120U,-3.4
24,G92A G100C,-4.07

row,Variant,polymerase ribozyme fitness (log ratio)
1,A89U C93G A147U,-2.7
2,A89U C99G G126A C132G,-4.08
3,C93U C103A C105U A120G U134C,-3.94
4,A91C C95U C103G C116G,≤ -4.2
5,G92C U101G G117C,-1.52
6,C93A U104G,-2.89
7,C93A A142U C149A,≤ -4.2
8,G92C U134G,-1.68
9,A91C A107U,≤ -4.2
10,A91G A120G,-2.98
11,G92A U135A U145C,-3.89
12,G92U C123A,-0.758
13,G92A U127A A150U,-4.1
14,A91U U145A,-4
15,G92A G117C,-2.82
16,C93U A97C G140A,≤ -4.2
17,A89U A150G,-0.42
18,A89U A150U,1.51
19,U90G G124C,≤ -4.2
20,C93A G140A,-4.11
21,C93U A142C,-0.842
22,C93U A142U,-1.68
23,C93U A137C,-4.07
24,A91G A113C U127C U146G,≤ -4.2

row,Variant,polymerase ribozyme fitness (log ratio)
1,C93A U101G U139C G141C,-3.88
2,G92C A98G A115U,-2.44
3,C93U A107U,-4.04
4,A91U G140U,≤ -4.2
5,A91U C114U U148G,≤ -4.2
6,U90A A91C U102G U151G,≤ -4.2
7,C93A A138U,-4.18
8,G92U C118A,-1.05
9,A89G C131A,-2.5
10,G92U U146A,-0.393
11,G92C U111C,-3.45
12,U90G C96A C131G,≤ -4.2
13,G92U G141C,-1.87
14,G92U G141A,-1.81
15,C93U C114U G141A,≤ -4.2
16,A91G G112C,-3.76
17,A91C G112C U146A,≤ -4.2
18,A89U U127C G136C A137C,-4.13
19,C93U C95U C149A,≤ -4.2
20,G92U A113C,-2.78
21,C93A G100C C118G A138G,≤ -4.2
22,U90A G94U C95U C116G C118G C123G,≤ -4.2
23,C93G A97G G140C A147U C149G,≤ -4.2
24,C93A U127A G133U G140U,≤ -4.2

row,Variant,polymerase ribozyme fitness (log ratio)
1,C93A G94A,-2.93
2,A91G U145G,-3.96
3,A91G U145A,-3.07
4,C93A C132A,≤ -4.2
5,C93A C96G A97C U148A,≤ -4.2
6,G92U U104G,-0.858
7,C93U C95U U102A A106G,-2.87
8,C93U A119G G143U U145G,-3.92
9,C93A C116U,-1.88
10,G92C C103A,-3.4
11,G92A A113C,-4.16
12,C93U C123G A138C,≤ -4.2
13,A89U A91U C116U,≤ -4.2
14,G92A A120G A121C U148C,-4.16
15,A91C C96A A120U A122C G143U,-4.07
16,A91C U109G G140U,≤ -4.2
17,A91C G152U,≤ -4.2
18,A89U U102G A122C,-3.7
19,A91U G94A G128U,≤ -4.2
20,A91U A147G,≤ -4.2
21,C93G A98C,-2.81
22,C93G A98U,-2.82
23,U90A G92C A142G,≤ -4.2
24,G92U C96A G136C,-3.56

row,Variant,polymerase ribozyme fitness (log ratio)
1,A91U U109G G141U,≤ -4.2
2,A91G G126A G141A,-3.67
3,C93U A110G,-3.25
4,C93U A110U,-4.1
5,C93A U101C G124U,-2.74
6,G92U U101A A119U G143U,-3.62
7,G92U C96U A97U A115U A121U,-2.82
8,C93G A97U A121G,≤ -4.2
9,G92A A106C U111G G136A,≤ -4.2
10,G92U A97C,-0.00996
11,A91C C96A G126A,≤ -4.2
12,A91C A120C,≤ -4.2
13,G92C G124U C129U A138G U139G,≤ -4.2
14,A91C A115C,≤ -4.2
15,C93A G124A,-2.59
16,U90C U104A,-4.11
17,C93A U146C,-2.18
18,C93A U146G,-3.27
19,C93G A115G C131U,-3.48
20,G92U U148A,-2.71
21,C93U C116U A122U,-1.45
22,A89G G126U U148G,-4.06
23,C93A A97U G128A,≤ -4.2
